Laboratory results as given in patent publication US20140363438A1, “NEUREGULIN ANTIBODIES AND USES THEREOF” (Genentech, Inc., priority 2011, published 2014).

Assays:
[1] = test system: Calu3 tumor model; experiment: Calu3 xenograft after chemotherapy: tumor response and NRG1 expression in residual tumor cells (qPCR); type: in vivo, human
Protocol: (§1) RNA was isolated using the Qiagen RNeasy Micro Kit, Complementary DNA was prepared from total RNA using ABI high fidelity kit according to manufacturer's instructions. NRG1alpha, NRG1beta, HER3, HER4 expression was determined using ABI gene specific primers/probe by quantitative real time PCR (ABI 7500). Gene expression was normalized using GAPDH or RAB14 house keeping genes.
(§2) Tumor cells (10-20 million) were transplanted into right flank of athymic nude mice. When tumor size reached ˜200 mm^3, the mice were divided into different treatment groups. Mice were then treated with either vehicle or chemotherapy (paclitaxel, i.v.+cisplatin, i.p.) for the initial studies. The chemotherapy dosing regimen was paclitaxel 20 mg/kg i.v. every other day for 5 doses and cisplatin 5 mg/kg i.p. on days 1 and 7 for the Calu3 model and days 1 and 14 for the H441 model. Regressed tumors and time matched vehicle controls were collected at least 1 week after the last dose of chemo. Tumors were dissociated using dispase/collagenase and samples were FACS sorted to collect the GFP positive tumor cells. For the NRG1 knockdown studies, the treatment groups were: sucrose, doxycycline (dox), chemotherapy+sucrose, and chemotherapy+doxycycline. […]
(§3) The expression of NRG1 in TRICs isolated from the Calu3 and H441 xenograft models was analyzed. […]

[2] = test system: H441 tumor model; experiment: H441 xenograft after chemotherapy: tumor response and NRG1 expression in residual tumor cells (qPCR); type: in vivo, human
Protocol: as §1, §2, §3

[3] = molecular target: T1, Recombinant human NRG1-α EGF domain (R&D Systems, cat#296-HR/CF) (human, UniProt Q02297 177-241); experiment: SPR (BIAcore T100), IgG captured by anti-human Fc, 250 nM NRG1α injected; sensorgram
T1 construct: also called NRG1-alpha; HRG1α
T1 sequence: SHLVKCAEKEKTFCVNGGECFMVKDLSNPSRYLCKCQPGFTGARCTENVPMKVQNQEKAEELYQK
Protocol: (§4) Binding affinities of anti-NRG1 IgGs were measured by Surface Plasmon Resonance (SRP) using a BIAcore™-T100 instrument. Anti-NRG1 human IgGs were captured by mouse anti-human Fc antibody (GE Healthcare, cat# BR-1008-39) coated on CM5 biosensor chips to achieve approximately 1000 response units (RU). […] Association rates (kₒₙ) and dissociation rates (koff) were calculated using a simple one-to-one Langmuir binding model (BIAcore Evaluation Software version 3.2). The equilibrium dissociation constant (KD) was calculated as the ratio koff/kₒₙ.

[4] = molecular target: T2, NRG1β (Homo sapiens, UniProt Q02297); experiment: Inhibition of 125I-HRG (NRG1β) binding to HER3-ECD-Fc; conditions: affinity matured clones of 538.24, FIG. 7
T2 sequence (Q02297 177-244 isoform Q02297-6 limits assumed): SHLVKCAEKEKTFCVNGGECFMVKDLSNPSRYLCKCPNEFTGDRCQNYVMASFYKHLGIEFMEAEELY
Protocol: The antibodies were tested for their ability to inhibit NRG1β binding to HER3-Fc. 125I-HRG was generated at Genentech as described previously (Sliwkowski et al JBC 1994). Binding assays were performed in Nunc break-apart strip wells (Thermo-Fisher Scientific, Rochester, N.Y.). Plates were coated at 4° C. overnight with 250 ng/well of HER3-ECD-Fc fusion protein in carbonate buffer (pH 9.6). Plates were rinsed twice with wash buffer (PBS/0.05% Tween 20) and blocked with 100 μL PBS including 1% bovine serum albumin (BSA) for 30 minutes. Increasing concentrations of anti-NRG1 antibodies in RPMI 1640 medium (Invitrogen; Carlsbad, Calif.) with 0.2% BSA were pre-bound to HER3-ECD-Fc. 125I-HRG (specific activity: 266 mCi/mg, 75,000 cpm/well) was added immediately after in a total assay volume of 130 μL. Plates were incubated for 2 hours at room temperature, rinsed twice, and individual wells were counted using a 100 Series Iso Data γ-counter. Samples were assayed in triplicates. Plotting was performed using KaleidaGraph 3.6 software. […]
The affinity matured variants were tested for their ability to block HRGβ binding to HER3-Fc. […] Plates were incubated for 2 hours at room temperature, rinsed twice, and individual wells were counted using a 100 Series Iso Data γ-counter. […]

[5] = molecular target: EGF (UniProt P01133 971-1023); experiment: ELISA
[6] = molecular target: HB-EGF (UniProt Q99075 63-148, limits assumed); experiment: ELISA
[7] = molecular target: T3, Betacellulin (BTC) (UniProt P35070 32-111); experiment: ELISA
T3 sequence (looked up): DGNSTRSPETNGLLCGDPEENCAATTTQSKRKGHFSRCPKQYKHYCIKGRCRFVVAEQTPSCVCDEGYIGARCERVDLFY

[8] = molecular target: T4, Recombinant human Neuregulin 1-beta (rhNRG1b, Genentech) (human, UniProt Q02297 1-640); experiment: cell-based or functional assay
T4 sequence: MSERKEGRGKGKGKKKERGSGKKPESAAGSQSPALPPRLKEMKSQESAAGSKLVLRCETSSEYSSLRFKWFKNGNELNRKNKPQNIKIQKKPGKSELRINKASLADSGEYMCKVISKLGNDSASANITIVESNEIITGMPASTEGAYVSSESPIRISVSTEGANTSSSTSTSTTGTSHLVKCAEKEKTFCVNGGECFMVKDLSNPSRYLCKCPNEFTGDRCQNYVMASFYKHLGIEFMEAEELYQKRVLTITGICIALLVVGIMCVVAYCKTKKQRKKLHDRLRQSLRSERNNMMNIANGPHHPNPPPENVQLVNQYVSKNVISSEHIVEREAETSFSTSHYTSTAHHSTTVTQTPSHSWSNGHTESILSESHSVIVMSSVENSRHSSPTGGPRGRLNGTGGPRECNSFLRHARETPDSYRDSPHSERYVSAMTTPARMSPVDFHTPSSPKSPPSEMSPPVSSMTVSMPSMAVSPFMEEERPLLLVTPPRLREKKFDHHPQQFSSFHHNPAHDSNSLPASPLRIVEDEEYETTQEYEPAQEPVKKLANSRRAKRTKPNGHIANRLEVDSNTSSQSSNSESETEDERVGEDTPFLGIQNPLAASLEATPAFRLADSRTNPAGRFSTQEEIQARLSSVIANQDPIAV

[9] = molecular target: T1, Recombinant human NRG1-α EGF domain …; experiment: cell-based or functional assay
[10] = molecular target: T5, Recombinant human NRG1-β ECD domain (R&D Systems, cat#377-HB/CF) (human, UniProt Q02297-11 121-191, limits assumed); experiment: SPR (BIAcore T100), IgG captured by anti-human Fc, NRG1β injected; sensorgram shown for 6.25 nM NRG-beta
T5 construct: also called NRG1-beta; HRG1β
T5 sequence: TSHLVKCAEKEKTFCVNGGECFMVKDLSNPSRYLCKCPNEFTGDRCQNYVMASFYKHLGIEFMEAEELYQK
Protocol: as §4

[11] = molecular target: T1, Recombinant human NRG1-α EGF domain …; experiment: SPR (BIAcore T100), IgG captured by anti-human Fc, NRG1α injected; sensorgram shown for 6.25 nM NRG-alpha
Protocol: as §4

Sequence of HB-EGF (Q99075 63-148 limits assumed): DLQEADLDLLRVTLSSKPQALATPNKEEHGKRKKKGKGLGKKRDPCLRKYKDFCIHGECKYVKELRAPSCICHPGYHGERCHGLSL
Sequence of EGF (P01133 971-1023 limits assumed): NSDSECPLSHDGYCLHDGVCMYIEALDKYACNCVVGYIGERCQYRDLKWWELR

CCC1=C[C@@H]2CN(C1)Cc1c([nH]c3ccccc13)[C@@](C(=O)OC)(c1cc3c(cc1OC)N(C)[C@H]1[C@@](O)(C(=O)OC)[C@H](OC(C)=O)[C@]4(CC)C=CCN5CC[C@]31[C@@H]54)C2 [vinorelbine]
tumor response to treatment [1]: continued to grow
tumor response to treatment [2]: continued to grow

Nc1ccn([C@@H]2O[C@H](CO)[C@@H](O)C2(F)F)c(=O)n1 [gemcitabine]
tumor response to treatment [1]: tumor regression
tumor response to treatment [2]: tumor regression

B1: 538.24.38 (antibody, V domains shown)
VH: EVQLVESGGGLVQPGGSLRLSCAASGFTFSGTWIHWVRQAPGKGLEWVAAITPADGSTNYADSVKGRFTISADTSKNTAYLQMNSLRAEDTAVYYCATYMFAMDYWGQGTLVTVSS
VL: DIQMTQSPSSLSASVGDRVTITCRASQDVSTAVAWYQQKPGKAPKLLIYSASFLYSGVPSRFSGSGSGTDFTLTISSLQPEDFATYYCQQSYTIPMTFGQGTKVEIK
notes: also called YW538.24.38; copies: 2 + 2
binding result [3]: binds

B2: 538.24.38: affinity matured variant of 538.24; VH SEQ ID NO: 21, VL SEQ ID NO: 25 (antibody, V domains shown)
VH: B1 VH
VL: DIQMTQSPSSLSASVGDRVTITCRASQDVSTAVAWYQQKPGKAPKLLIYSASFLYSGVPSRFSGSGSGTDFTLTISSLQPEDFATYYCQQSYTIPMTFGQGTKVEIKR
modifications: Heavy chain variable region; Light chain variable region
blocking of 125I-NRG1β binding to Her3 [4]: All but 538.24.38 are highly effective in blocking binding

B3: anti-NRG1 antibody 526.90.28 (antibody, human IgG1, kappa, V domains shown)
VH: EVQLVESGGGLVQPGGSLRLSCAASGFTFSDIAMSWVRQAPGKGLEWVSWIYPSGGNTYYADSVKGRFTISADTSKNTAYLQMNSLRAEDTAVYYCARSYILSQKSATWAFDYWGQGTLVTVSS
VL: DIQMTQSPSSLSASVGDRVTITCRASQSISSYLAWYQQKPGKAPKLLIYGASSRASGVPSRFSGSGSGTDFTLTISSLQPEDFATYYCQQSYSTPITFGQGTKVEIKR
notes: also called YW526.90.28
binding result [5]: no binding
binding result [6]: no binding
binding result [7]: no binding
IC50 of inhibition of Her3 activation (phosphorylation), KIRA on MCF-7 cells, 0.2 nM rhNRG1b [8]: 1.44 nM
IC50 of inhibition of Her3 activation (phosphorylation), KIRA on MCF-7 cells, 0.5 nM rhNRG1a [9]: 13.9 nM
Kd [10]: 1.09 nM
koff [10]: 0.000367 s⁻¹
kon [10]: 337000 M⁻¹ s⁻¹
Kd [11]: 0.587 nM
koff [11]: 0.000595 s⁻¹
kon [11]: 1.01e+06 M⁻¹ s⁻¹
